Literature values, collected in US7435406B2, “Methods for conducting metabolic analyses” (Target Discovery, Inc., priority 1999, dated 2008).

Details: protein standards obtained from Sigma-Aldrich

Molecule | pl
Carbonic anhydrase II: protein standard from Sigma-Aldrich, Cat # T 6522 | 4.5
Bovine ribonuclease A: protein standard from Sigma-Aldrich, Cat # R 5503 (protein, UniProt P61823 27-150, looked up) Ribonuclease pancreatic: KETAAAKFERQHMDSSTSAASSSNYCNQMMKSRNLTKDRCKPVNTFVHESLADVQAVCSQKNVACKNGQTNCYQSYSTMSITDCRETGSSKYPNCAYKTTQANKHIIVACEGNPYVPVHFDASV | 9.6
